Source: publication PMC3683045, “Induced tRNA Import into Human Mitochondria: Implication of a Host Aminoacyl-tRNA-Synthetase”

Target: preKARS2 (cytosolic precursor of human mitochondrial lysyl-tRNA synthetase) (human, UniProt Q15046-2 1-625)
Assay: EMSA; 10 mM Mg2+; EMSA: 20 mM Tris-HCl pH 7.5, 150 mM NaCl, 10 mM MgCl2, 5 mM DTT, 10% glycerol, 0.1 mg/ml BSA, 30 C, 15 min; native 8% PAGE in 0.5x Tris-borate pH 8.3, 5% glycerol
Conditions: protein: recombinant; tags: C-terminal 6xHis; chain copies: 2; label: 5'-32P; D-arm and F-hairpin with linker

Sequence of preKARS2 (cytosolic precursor of human mitochondrial lysyl-tRNA synthetase) (Q15046 other isoform, or with tags, fused parts or gaps): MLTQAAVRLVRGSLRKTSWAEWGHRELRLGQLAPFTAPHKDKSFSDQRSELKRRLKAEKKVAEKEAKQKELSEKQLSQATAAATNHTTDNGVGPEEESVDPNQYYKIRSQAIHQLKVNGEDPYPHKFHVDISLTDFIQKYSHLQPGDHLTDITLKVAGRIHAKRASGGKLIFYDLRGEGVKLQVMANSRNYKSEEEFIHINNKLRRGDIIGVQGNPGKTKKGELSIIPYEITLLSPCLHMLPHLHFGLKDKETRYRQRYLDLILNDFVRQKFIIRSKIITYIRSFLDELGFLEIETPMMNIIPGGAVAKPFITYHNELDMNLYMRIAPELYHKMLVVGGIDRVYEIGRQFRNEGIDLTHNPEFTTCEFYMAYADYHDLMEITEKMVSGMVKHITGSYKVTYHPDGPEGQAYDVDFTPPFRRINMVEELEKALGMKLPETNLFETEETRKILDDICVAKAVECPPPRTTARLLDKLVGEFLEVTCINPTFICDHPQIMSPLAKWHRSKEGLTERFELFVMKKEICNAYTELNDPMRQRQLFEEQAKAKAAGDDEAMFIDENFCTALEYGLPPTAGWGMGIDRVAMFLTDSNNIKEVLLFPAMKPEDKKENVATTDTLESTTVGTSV

Binder | Kd [nM]
FD-L (structured_RNA) RNA: GCGCAAUCGGUAGCGCCUCUUUACAGUGCUUAGUUCUCGAGCCCCCUACAGGGCUCUU | 400 ± 50
FD-H (structured_RNA) RNA: GCGCAAUCGGUAGCGCAGUAAGCACUGUAAAUGAGCCCCCUACAGGGCUCUU | 400 ± 50
